Measured values from patent publication US20240067751A1 (KEYMED BIOSCIENCES, published 2024).

What was measured:
[1] = biological target: T1, human MASP-2 D4-6 recombinant protein (human, UniProt O00187 298-686); experiment: ELISA, antigen coated, chimeric IgG titrated, anti-human Fc-HRP
T1 construct: his6 tag fused at the N-terminus, made in HEK293E; also called enzymatic activity domains CCP1-CCP2-SP of human MASP-2

[2] = biological target: T2, Cynomolgus monkey MASP-2 D4-6 recombinant protein (Cynomolgus monkey, UniProt O00187 298-686 (human entry), limits assumed); experiment: as above
T2 construct: Made 'similarly' to the human protein (N-terminal his6 tag)

[3] = biological target: T3, mouse MASP-2 D4-6 recombinant protein (mouse, UniProt Q91WP0 298-685); experiment: as above
T3 construct: Made 'similarly' to the human protein (N-terminal his6 tag)

[4] = biological target: T4, rat MASP-2 D4-6 recombinant protein (rat, UniProt Q9JJS8 298-685); experiment: as above
T4 construct: Made 'similarly' to the human protein (N-terminal his6 tag)

[5] = biological target: T1, human MASP-2 D4-6 recombinant protein; experiment: SPR Biacore T200, antibody on Protein A chip, antigen as analyte, 1:1 fit
Protocol: (§1) Surface plasmon resonance technology (SPR/Biacore T200) was used to capture 0.1 μg/ml of the antibody on the surface of the Protein A chip, with a capture time of 40 seconds and a flow rate of 10 μl/min. The chip was washed with buffer until the baseline leveled off, then gradient-diluted antigen was flowed through the chip at the flow rate of 30 μl/min, with a binding time of 120 sec and a dissociation time of 600 sec. The equilibrium dissociation constant (KD) was obtained by fitting in Langmuir 1:1 kinetics mode.

[6] = biological target: T2, Cynomolgus monkey MASP-2 D4-6 …; experiment: as above
Protocol: as §1

[7] = biological target: T3, mouse MASP-2 D4-6 recombinant protein; experiment: as above
Protocol: as §1

[8] = biological target: T4, rat MASP-2 D4-6 recombinant protein; experiment: as above
Protocol: as §1

T2 sequence (O00187 other isoform, or with tags, fused parts or gaps limits assumed): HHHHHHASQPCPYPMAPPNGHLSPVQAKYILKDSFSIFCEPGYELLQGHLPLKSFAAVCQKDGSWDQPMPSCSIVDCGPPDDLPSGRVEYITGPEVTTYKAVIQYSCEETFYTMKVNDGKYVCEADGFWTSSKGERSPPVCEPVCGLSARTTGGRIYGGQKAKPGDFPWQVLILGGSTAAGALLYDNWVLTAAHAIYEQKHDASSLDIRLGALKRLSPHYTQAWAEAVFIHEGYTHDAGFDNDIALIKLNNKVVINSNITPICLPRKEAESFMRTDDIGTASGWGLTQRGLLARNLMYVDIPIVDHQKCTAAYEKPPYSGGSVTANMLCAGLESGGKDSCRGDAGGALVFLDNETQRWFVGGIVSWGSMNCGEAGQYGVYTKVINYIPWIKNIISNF
T1 sequence (O00187 other isoform, or with tags, fused parts or gaps limits assumed): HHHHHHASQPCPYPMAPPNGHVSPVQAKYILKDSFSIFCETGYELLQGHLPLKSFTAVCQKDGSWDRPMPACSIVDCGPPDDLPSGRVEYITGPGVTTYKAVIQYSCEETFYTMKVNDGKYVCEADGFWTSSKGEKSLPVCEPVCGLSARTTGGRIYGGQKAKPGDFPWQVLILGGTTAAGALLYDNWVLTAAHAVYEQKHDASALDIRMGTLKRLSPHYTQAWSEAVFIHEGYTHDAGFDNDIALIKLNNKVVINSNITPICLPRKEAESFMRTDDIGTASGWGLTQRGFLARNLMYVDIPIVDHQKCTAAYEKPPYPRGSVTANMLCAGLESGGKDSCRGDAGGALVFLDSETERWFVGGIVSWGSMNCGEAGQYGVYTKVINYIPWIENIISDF
T4 sequence (Q9JJS8 other isoform, or with tags, fused parts or gaps limits assumed): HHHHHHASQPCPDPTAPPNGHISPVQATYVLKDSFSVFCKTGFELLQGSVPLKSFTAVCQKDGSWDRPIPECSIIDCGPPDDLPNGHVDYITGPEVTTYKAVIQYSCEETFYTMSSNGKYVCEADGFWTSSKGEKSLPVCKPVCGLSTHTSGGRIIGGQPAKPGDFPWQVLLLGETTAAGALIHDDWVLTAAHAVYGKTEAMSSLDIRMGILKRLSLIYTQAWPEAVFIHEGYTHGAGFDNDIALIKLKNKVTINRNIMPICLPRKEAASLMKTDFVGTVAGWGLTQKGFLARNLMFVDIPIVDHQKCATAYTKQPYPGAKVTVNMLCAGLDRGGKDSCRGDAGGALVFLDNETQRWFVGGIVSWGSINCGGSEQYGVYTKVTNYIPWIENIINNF
T3 sequence (Q91WP0 other isoform, or with tags, fused parts or gaps limits assumed): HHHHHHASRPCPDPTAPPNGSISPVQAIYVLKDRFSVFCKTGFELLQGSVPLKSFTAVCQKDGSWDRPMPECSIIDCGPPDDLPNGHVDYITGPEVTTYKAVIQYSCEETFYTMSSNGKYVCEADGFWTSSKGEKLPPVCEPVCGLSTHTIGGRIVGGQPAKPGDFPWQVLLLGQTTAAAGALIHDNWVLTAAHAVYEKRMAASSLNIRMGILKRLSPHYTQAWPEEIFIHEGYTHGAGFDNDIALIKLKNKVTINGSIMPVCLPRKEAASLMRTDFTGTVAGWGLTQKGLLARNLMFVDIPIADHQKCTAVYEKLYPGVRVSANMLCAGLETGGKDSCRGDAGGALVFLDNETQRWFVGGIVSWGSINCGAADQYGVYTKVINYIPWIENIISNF

B1: chimeric antibody 25L15 (antibody, V domains shown)
VH: KVKLVESGGDLVKPGGSLKISCAASGFTFSNYAMSWIRQTPDKRLEWVATVSSGGPYTYYPDSVKGRFTISRDNAENTLYLQMSSLRSDDTAIYYCARQIYSDYDVTYWGQGTLVTVSA
VL: QIVLSQSPAILSASPGETVTMTCRVSSSVSYMYWLQQKPGSSPKPWIYATSNLASGVPARFSGSGSGTSYSLTITRVEAEDAATYYCQQWSFRPWTFGGGTKLEIK
Q: What does the source list for B1?
A: EC50 [1]: 0.012 nM; EC50 [2]: 0.008 nM; EC50 [3]: 0.023 nM; EC50 [4]: 0.021 nM; Kd [5]: 0.12 nM; Kd [6]: 0.92 nM; Kd [7]: 499 nM; Kd [8]: 167 nM
